In a protein production outcome set (Wang et al. 2014):

Assay: label from the status in PepcDB records

Row | Sequence | protein production
1 | MKKKLFYYLFAVLCTATLFTSCSDDDDEVKYPIDTELAGGYVGNLSVNVDGNQMGTTENQKITISQSNKETNQIALSLKNFTFLVNVGDIEVDPCTVKAIDGGYAFEGQQNLDLVQPLGNCPVSISGTVKGSNINIEIGVKVGAPLNQNVKATFVGRKLTGSESSEAKIISFILDDDIVTEQPIINEEEGIVTFKVSDAAVDDDLSGMIPTIVVSSKAKITPASGVAQDFSNGKKVEYTVTAEDGTTKKYSVFIAGSSDYYSFETWKSLNDGAFEEPDGGWATSNTGVWFIKTVYPDVYNGDYPVVKSEDAKDGAVGVKLITLDTKGQAGADWGFIKIPAIPKVTSGSLFLGTFETDIQNTLNSTKFGNPYYSKPISVQFSYKYTPGAVYYTCPDPVKAEAVTEDPNTTDECSVTAVIYEVPYWETVDPDDANNKAYDKRLTGANLYTNTDQVIAMATFSSGVQEDYKDITLTLNYEKDYDPTKKYRFAIVFSSSKNGDKFSGAPGSTLIVDNVKVVAEK | failed
2 | MKRKHLSGKSIGIVFGTFAPMHVGHVDLITKEKRANDNVLVIVSGSNTQKDRGTRTGLSLNRRFRNVREIFYDDELIVVDKLDEADMPPYPEGWVPWVNRVKDLITKNTDGPEKITFYVGESEYVIELNRYYPQAQVELIECSVINISATEIRDNPIENWRFITKPFRRHF | failed
3 | MPMYQETSEPSLQALESRQDDILKRLYELKAAVDGLSKMIHTPDADLDVTNILQADEPTTLATNTLDLNSVLGKDYGALKDIVINANPASPPLSLLVLHRLLCERYRVLSTVHTHSSVKNVPENLVKCFGEQARKQSRHEYQLGFTLIWKNVPKTQMKFSVQTMCPIEGEGNIARFLFSLFGQKHNAVTLTLIDSWVDIAMFQLREGSSKEKAAVFRSMNSALGRSPWLVGNELTVADVVLWSVLQQTGGSSGAAPTNVQRWLKSCENLAPFSTALQLLK | failed
4 | MIEIKTLTNNDFNEYKRLVSTVNEEFTQDSHYSQTMTDTLIHDILNQGSPKCIVFGCYENETLIATAALEQIRYVGKEHKSLIKYNFVTNNDKSINSELINFIINYARQNNYESLLTSIVSNNIGAKVFYSALGFDILGFEKNAIKIGNTYFDEHWLFYDLINK | failed
5 | PDADPVEIENRIIELCHQFPHGITDQVIQNEMPHIEAQQRAVAINRLLSMGQLDLLRSNTGLLYRIKD | not failed
6 | MSNYEKVYIGTYTNGESRGIYSFNIISDSRKTTAPILSCEIENPTYLTFNMNNKTAYSVIKSGNLGGAASFYVDDRNNHLELLNCKFGYENPPERFSGKQPCYVSLDKTNSYLFSVNYHTSRVDVFPIRNDGSIDTVSSFVIHEGFGPNKERQETSHVHCAVTTPLNDFLCVVDLGTDKIVLYRFDDGILCRFNEFKLKPGCGPRHIIFHPNGKIAYIATELSSEVIVLKYSPLDGSFEELQYVSCLPTDYTGKNGSAAIHISRNSNYLYVSNRGHNSISCFHVDNSTGLLTLNSNTSTYGLSPRDFDLSSSGNLLIAANQDSSNLTIFSVDQVSGNLSKITSDIYVPNPVCVKFYHDKLEHHHHHH | failed
7 | MQHLREWLSDWFRRILPNAQAVSFAILLVVGFIVVVSLAKMLMPVFAAGIIAYLLDGLVEIGERRKLPRLVSVIVVYLLFLALLLVVFIGLLPLLYQQTLQLIEQAPSWVNRGQVLIMELPERYPDYITQEQVNDLIGAIRAELISYGQSMLTYSYASLVSLITVVVYFILVPLLVFFFLKDRDRILGWFTQYLPRDRNLSNRVWKEVDMQIGNYVRGKFVEIVILFAASFVTFSLMGLNYALLLAVLMGISVIIPYVGATLVTFPVMIVAFFQWGVSDDFWYLMLAYAIIQALDGVMLVPLLFSEVVNLHPVAIIVAILFFGGWWGFWGVFFAIPLATLVKAVLSAWPRLGEGEMPAAGGP | failed
8 | MKLSIHGRKITLTDAIRKYAEEKISKVEKFNDSIIKIDATLAASKLKTGNAHVTEILAYLSGSTLKATATESDLYASIDKAVDIMESLLKKHKEKRSRAKVQDDTRKKSYSFDYIVEPEEKLSDEKKLVRVYLPLKPMEISEAILQLEYLNRVFFAFTNTTTGKMAVVYKRKDGDYGVIED | failed
9 | MTDAAALPGQPRGGVLSGPATRRAVNVLAPNASAMTLDGTNTWIVAEPDSELAVVIDPGPLDDVHLRNVVDTAERAGRRIALTLLTHGHPDHAEGAARFAELTGTNVRALDPALRLGDEGLAPGDVVTVGGLELRVVPTPGHTSDSLCFHLPADRAVLTGDTVLGRGTTVVAHPDGRLGDYLDSLRRLRSLTVDDGVHTVLPGHGPVLDDAQGAVEFYLAHRAHRLAQVETAVENGYRAPAEVVAHVYADVDRSLWPAAELSVRAQMDYLREHGLI | failed
10 | MKKAKSRIAILGTGGTIAGFIDSTIATTGYAAGAIDIDVLIKAVPQIRDLADISWEQIANIDSSNMCDEIWLRLAKKIAKLFAEGIDGVVITHGTDTMEETAYFLNLTIKSDKPVVLVGAMRPSTAISADGPKNLYNAVALVVNKEAKNKGVMVAINDKILSARGVVKTHSLNVDAFSSPDFGDLGYIVDGKVFFYNNVIKAHTKNAPFDVSKLTSLPKVDILYSYSNDGSGVAAKALFEHGTKGIVVAGSGAGSIHKNQKDVLKELLKKGLKVVVSSRVVAGCVAVSDSDEKLGFISAEDLNPQKARVLLMLALTKTSDPKKIQEYFLKY | not failed
11 | MSFEEFTPLNEKSLVDYIKSTPALSSKIGADKSDDDLVIKEVGDGNLNFVFIVVGSSGSLVIKQALPYIRCIGESWPMTKERAYFEATTLRKHGNLSPDHVPEVYHFDRTMALIGMRYLEPPHIILRKGLIAGIEYPFLADHMSDYMAKTLFFTSLLYHDTTEHRRAVTEFCGNVELCRLTEQVVFSDPYRVSTFNRWTSPYLDDDAKAVREDSALKLEIAELKSMFCERAQALIHGDLHTGSVMVTQDSTQVIDPEFSFYGPMGFDIGAYLGNLILAFFAQDGHATQENDRKEYKQWILRTIEQTWNLFNKRFIALWDQNKDGPGEAYLADIYNNTEVLKFVQENYMRNLLHDSLGFGAAKMIRRIVGVAHVEDFESIEEDKRRAICERSALEFAKMLLKERRKFKSIGEVVSAIQQQS | failed
12 | MPKANLEIIRSTYEGSASSNAKHLAEALSEKVEWTEAEGFPYGGTYIGVEAIMENVFSRLGSEWNDYKASVNMYHEVSGKDVIIAEGMYSGVYKDTGKSFEAEFVHVWQLENGKIVKFKQYVDSHLVREAMKS | not failed
13 | QEIASRLPYFCSGCPHNSSTKVPDGSRAYAGIGCHYMVQWMDRNTQGFTHMGGEGANWIGEAPFSKTKHVFQNLGDGTYNHSGVQAIRAALAAGTNITYKILFNDAVAMTGGQENEGDLSAPRIVAELKAMGVKELAVVYDDKEDVDRSQFPSGIPFHERAELMQVQKRFREIAGVSAIVYIQTCAAEKRRRRKRGTFPDPDKRAFINTDICEGCGDCGVQSNCVSIVPKETELGRKRAIDQSSCNKDFSCVKGFCPSFVTVQGAKIRKEATAEIDL | failed
14 | MNKFVKSLLVAGSVAALAACSSSNNDAAGNGAAQTFGGYSVADLQQRYNTVYFGFDKYDITGEYVQILDAHAAYLNATPAAKVLVEGNTDERGTPEYNIALGQRRADAVKGYLAGKGVDAGKLGTVSYGEEKPAVLGHDEAAYSKNRRAVLAY | not failed
15 | MSELIAQLLVYIKGIWKYRWASVATAWTVAIAGWFFVYQMPDNYQASARIYVDTQSILRPLMAGMTVSPNPDQQITIMSRTLISRPNVERIIRMVDLDIKITDDSAREKLVTTLMKDIKLSTTGSDNIFMISYDNKDPRLAKDIVQSLLTIFVEGGLEGKKQDSASALRFIDQQIAAYEEKLVAAEAALTAFKQKNIGFLPGQGGDYYSQLVSAAEELEKARLTLLEAEQARDAVKKQITGDEPVLLFEVGEVSPQSIVNPEIDSRIQALNTNLDNLMLNFTDQHPDVVATKRLIAQLEERKVEEAKLAGTVNNRGRNYDPMMQQLNIALAESEAQVASMKARVAEYEARFERLKSMSNTVPAVEVEMQQLNRDYNVNKANYEKLLERRASAEISGELTSTSGLMSFRIVDPPTVPEAPSGPDRKKFFTLVLIGALAGGIGFAFIISQIRPTFHSQSTLRELTGLPILGTIPMVWTEQQKLKDKRKIYAFGISLLMLMACYVVLMIYVKPHGMTAA | failed
16 | MSDATNNAVLVRNLSPEVTKQTLLDFFSFCGEISAVKIRPSVGEGGSSSSGSPTEAMEALVIFENQSAKKTALVLDSATLKKRKISVMDATEELVSSFKDVREVDLARDSTDVPETATARQERLQGLREEFDRAIKRASDKLSDFNEKHRITEKVQEFGDLTKRKTQEINEQYRLTERAREGWQTVREKTRELDERLHLSESARDGWRSLKASVSKIMQKDRGGEVDKA | not failed
17 | MADERYNRKNPAVKRILQEVKEMQANPSDDFMSLPLEENIFEWQFAIRGPGDTEFEGGIYHGRIQLPADYPFKPPSFMLLTPNGRFETNTKICLSISNYHPEHWQPSWSVRTALVALIAFMPTSPNGALGSVDYPKDERRTLAIKSRETPPKYGSPERQKIIDEIHQYILSKATVVPKPLPLECSQAPSIVSEAHSQVEPQEAITVVEERSIATTDTIVDDQIIEETAEAVNTAASVVPAAAPLPAVEVVVKASVSGEQRMARRAAQKPVDDRLFTWAAVGLTIAIMVLLLKKFIKSNGYSTGFMDDQS | failed
18 | MTVGQVLRSYPQTVQTFLELGMHCLGCPSSTMESIEGAALTHGKKPDELVEKLNKVIAANLEHHHHHH | failed
19 | MNKYLSFIFASVLTLTGVQLSKASNPSDSLAIVSAKWERTSSLQGIQLKQASIEGLFGGKQSISILTIGRAEGYTAFIATTDSLTTTSQLAEQSRSSAAINGSYFSIKEGFSTCYLRKNEAVIDTTTTEERHLRVNGAVHMVDNNIRIIPWNDENEKKGFPLDGDILASGPLLMQDGKTCDFTTIDREFSETRHPRSAIALTKEGDIMLVAVDGRAEGHADGMSIAELAYLLRILKAHCALNLDGGGSTTLWVNGQVVNHPSDNKKFDNKGERKVHNIIAVRRLTNP | failed
20 | MSIVSISYNQEEYIREALDGFAAQRTEFPVEVIIADDASTDATPRIIGEYAARYPQLFRPILRQTNIGVHANFKDVLSAARGEYLALCEGDDYWTDPLKLSKQVKYLDRHPETTVCFHPVRVIYEDGAKDSEFPPLSWRRDLSVDALLARNFIQTNSVVYRRQPSYDDIPANVMPIDWYLHVRHAVGGEIAMLPETMAVYRRHAHGIWHSAYTDRRKFWETRGHGMAATLEAMLDLVHGHREREAIVGEVSAWVLREIGKTPGRQGRALLLKSIADHPRMTMLSLQHRWAQTPWRRFKRRLSTELSSLAALAYATRRRALEGRDGGYRETTSPPTGRGRNVRGSHA | failed
21 | MYRDRIRLPSLMSKVMSAADAAALIEDGMTVGMSGFTRAGEAKAVPHALAERAKVTPLKISLMTGASLGNDLDKQLTESGVLSRRMPFQVDSTLRKAINNGTVMFIDQHLSDTVELLRNRQIKAVDLAVIECVAITEEGHLVLSTSVGNSASFAILAKQVIVEINLSQPLELEGLHDIYIPSYRPTRLPIPVLEADSRIGSHAVKIDPAKIVGIVISNQPDSPSTVTPPDADTQAIANHLVEFFKKEVREDRLTDKLMPLQAGIGNIANAVMHGLLESPFTDLTMYSEVLQDSTFDLFDAGKLTFASGSSMTLSAAKHAEVFADFNRYKSRLVLRPQEISNHPEVIRRLGIIGINTALEFDLYGNVNSTHICGTRMMNGIGGSGDFSRNAHLAIFVTKSIAKGGAISSVVPMVSHVDHTEHDVDILVTEQGLADLRGLAPRERARVIIDNCVHADYRDALNAYFDAACALGGHTPHILREALSWHINLEENGRMLPT | failed
